Results: US20140348834A1 (published 2014)
Substitutions are numbered along the chain they refer to. Like-named read-outs stand apart in the source and are kept apart here.

What was measured:
human IL-17A/F [1] = biological target: T1, human IL-17A/F (human, UniProt Q16552 24-155; Q96PD4 31-163); assay: cell-based or functional assay
T1 sequence (Q16552 24-155 limits assumed, chain 1 of 2): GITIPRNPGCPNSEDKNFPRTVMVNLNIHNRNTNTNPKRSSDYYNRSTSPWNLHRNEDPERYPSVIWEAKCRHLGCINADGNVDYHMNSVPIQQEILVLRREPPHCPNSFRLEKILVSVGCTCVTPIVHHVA
T1 sequence (Q96PD4 31-163 limits assumed, chain 2 of 2): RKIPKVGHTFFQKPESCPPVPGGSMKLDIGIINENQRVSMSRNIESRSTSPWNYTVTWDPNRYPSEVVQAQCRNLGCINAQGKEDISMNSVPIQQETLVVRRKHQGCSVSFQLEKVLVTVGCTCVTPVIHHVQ

human IL-17A [2] = biological target: T2, human IL-17A (human, UniProt Q16552 24-155); assay: cell-based or functional assay
T2 sequence (Q16552 24-155 limits assumed): as the sequence (Q16552 24-155 limits assumed, chain 1 of 2) above

[3] = biological target: T3, cynomolgous monkey (cyno) IL-17A (cynomolgus monkey, UniProt A0A2K5TTB0 24-155); assay: cell-based or functional assay
human IL-17A [4] = biological target: T2, human IL-17A; assay: ELISA, captured antibody, serially diluted biotin-IL-17 (Example 1.5.1)
Experimental: The following protocol is used to characterize the binding of IL-17 antibodies to human IL-17 by enzyme-linked immunosorbent assay (ELISA). […] 1. Coat ELISA plate with 50 μl per well of Goat anti Mouse IgG-Fc at 2 ug/ml, overnight at 4° C. […] 2. Wash plate 3×PBS/Tween. […] 3. Add 50 μl Mab diluted to 1 μg/ml in PBS/0.1% BSA to appropriate wells. Incubate 1 hr at room temperature (RT). […] 4. Wash plate 3× with PBS/Tween. […] 5. Add 50 μl of serial diluted biotin-IL17 (human IL-17, IL-17A/F, cyno IL-17) to appropriate wells. Incubate 1 hr at room temperature (RT). […] 6. Wash plate 3× with PBS/Tween. […] 7. […] Incubate 1 hr at RT. […] 8. Wash plate 3× with PBS/Tween. […] 9. […] 10. Stop reaction with 50 μl 2N H₂SO₄. […] Read absorbance at 450 nm.

rabbit IL-17A = rabbit IL-17A (rabbit); assay: cell-based or functional assay
human IL-17A/F [5] = biological target: T1, human IL-17A/F; assay: cell-based or functional assay; remark: listed apart in the source
mouse IL-17A [6] = biological target: T4, mouse IL-17A (mouse, UniProt Q62386 26-158, limits assumed); assay: cell-based or functional assay
T4 sequence (looked up): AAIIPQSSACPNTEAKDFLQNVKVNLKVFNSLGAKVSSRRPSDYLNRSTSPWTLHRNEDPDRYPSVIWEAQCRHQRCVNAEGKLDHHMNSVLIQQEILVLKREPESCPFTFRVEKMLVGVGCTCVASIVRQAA

human IL-17A [7] = biological target: T2, human IL-17A; assay: cell-based or functional assay; remark: listed apart in the source
rat IL-17A [8] = biological target: T5, rat IL-17A (rat, UniProt Q61453 18-150, limits assumed); assay: cell-based or functional assay
T5 sequence (looked up): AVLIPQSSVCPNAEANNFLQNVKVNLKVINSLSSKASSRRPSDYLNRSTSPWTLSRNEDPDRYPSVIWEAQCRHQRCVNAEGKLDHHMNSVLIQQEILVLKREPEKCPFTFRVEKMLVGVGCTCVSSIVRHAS

[9] = biological target: T3, cynomolgous monkey (cyno) IL-17A; assay: cell-based or functional assay; remark: listed apart in the source
human IL-17A [10] = biological target: T6, human IL-17A (human, UniProt Q16552 24-155); assay: hIL17A ELISA
T6 construct: Recombinant; biotinylated in the ELISA; also called hIL-17; hIL17A
T6 sequence (Q16552 24-155): as the sequence (Q16552 24-155 limits assumed, chain 1 of 2) above
Experimental: The following protocol is used to characterize the binding of IL-17 antibodies to human IL-17 by enzyme-linked immunosorbent assay (ELISA). […] Coat ELISA plate with 50 μl per well of Goat anti Mouse IgG-Fc at 2 ug/ml, overnight at 4° C. […] Wash plate 3×PBS/Tween. […] Add 50 μl Mab diluted to 1 μg/ml in PBS/0.1% BSA to appropriate wells. Incubate 1 hr at room temperature (RT). […] Wash plate 3× with PBS/Tween. […] Add 50 μl of serial diluted biotin-IL17 (human IL-17, IL-17A/F, cyno IL-17) to appropriate wells. Incubate 1 hr at room temperature (RT). […] Wash plate 3× with PBS/Tween. […] Incubate 1 hr at RT. […] Wash plate 3× with PBS/Tween. […] Stop reaction with 50 μl 2N H₂SO₄. […] Read absorbance at 450 nm.

rat IL-17A [11] = biological target: T7, rat IL-17A (rat, UniProt Q61453 18-150, limits assumed); assay: SPR (Biacore 3000), antibody captured by anti-Fc, antigen in solution;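 also: purified recombinant IL-17 antigens flowed over captured antibodies in HBS-EP buffer, global Langmuir one-to-one fit of association and dissociation phases, KD derived from koff over kon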
T7 construct: Purified recombinant protein in SPR
T7 sequence (looked up): T5 sequence (looked up)

mouse IL-17A [12] = biological target: T8, mouse IL-17A (mouse, UniProt Q62386 26-158, limits assumed); assay: as above
T8 construct: Purified recombinant protein in SPR; also called MuIL-17A; murine IL-17A
T8 sequence (looked up): T4 sequence (looked up)

human IL-17A/F [13] = biological target: T9, human IL-17A/F (human, UniProt Q16552 24-155; Q96PD4 31-163); assay: as above
T9 construct: Recombinant; biotinylated in the ELISA; also called hIL-17A/F; HuIL-17A/F
T9 sequence (Q16552 24-155, chain 1 of 2): as the sequence (Q16552 24-155 limits assumed, chain 1 of 2) above
T9 sequence (Q96PD4 31-163, chain 2 of 2): as the sequence (Q96PD4 31-163 limits assumed, chain 2 of 2) above

cynomolgus monkey IL-17A [14] = biological target: T10, cynomolgus monkey IL-17A (cynomolgus monkey, UniProt A0A2K5TTB0 24-155); assay: as above
T10 construct: biotinylated in the ELISA; also called cyno IL-17; Cyno IL-17A

human IL-17A [15] = biological target: T6, human IL-17A; assay: as above
rat IL-17A [16] = biological target: T7, rat IL-17A; assay: cell-based or functional assay; remark: listed apart in the source
cynomolgus monkey IL-17A [17] = biological target: T10, cynomolgus monkey IL-17A; assay: cell-based or functional assay
human IL-17A [18] = biological target: T6, human IL-17A; assay: cell-based or functional assay; remark: listed apart in the source

T3 sequence (A0A2K5TTB0 entry or part of it): as the sequence (Q16552 24-155 limits assumed, chain 1 of 2) above, with T3A, P8S, N34S, I77V, N78K, P104R counted along it
T10 sequence (A0A2K5TTB0 entry or part of it): as the sequence (Q16552 24-155 limits assumed, chain 1 of 2) above, with T3A, P8S, N34S, I77V, N78K, P104R counted along it

B1: IL17-TN-L7-G9 (antibody, V domains shown)
VH: EVQLLESGGGVVQPGRSLRLSCAASGFIFSNYGMHWVRQAPGKGLEWVAVISYDGSNKYYADSVKGRFTISRDNSKNTLYLEMNSLRPEDTAVYYCAKVGASGDYYYSYGLDVWGQGTTVTVSS
VL: QSGLTQPPSASGTPGQTVSISCSGSNSNIGSHSVNWYQQVPGAAPKLLMYGIGQRPSGVPDRFSVSQSGTSASLAISGLQSEDEADYYCATWDDSLGGYVFGSGTKVTVLG
notes: Fully human monoclonal antibody from mRNA display
- Potency (nM), IL-17-driven IL-6 production in HS27 cells (human IL-17A/F [1]): 2 nM
- Potency (nM), IL-17-driven IL-6 production in HS27 cells (human IL-17A [2]): 0.8 nM
- Potency (nM), IL-17-driven IL-6 production in HS27 cells [3]: 12 nM
- EC50 (human IL-17A [4]): 0.165 nM

B2: IL17-TN-L7-A7 (antibody, V domains shown)
VH: B1 VH with R16T, S17F, S25T, I28T, N31A, K43R, I51T, T119M
VL: B1 VL
notes: as for B1
- Potency (nM), IL-17-driven IL-6 production in HS27 cells (human IL-17A/F [1]): 1.8 nM
- Potency (nM), IL-17-driven IL-6 production in HS27 cells (human IL-17A [2]): 1.8 nM
- Potency (nM), IL-17-driven IL-6 production in HS27 cells [3]: 12 nM
- EC50 (human IL-17A [4]): 0.131 nM

B3: IL17-TN-K7-B6 (antibody, V domains shown)
VH: EVQLVQSGAEVKKPGESLKISCKASGGSFRSYGISWVRQAPGQGLEWMGGITPILGTANYAQKFQGRVTITADESTTTAYMELSGLTSDDTAVYYCAREPNDFWNGYYTTHHFDYWGQGTPVTVSS
VL: DVVMTQSPDFQSVTPKEKVTITCRASQNIGSALHWYQQKPDQSPKLLIKYASQSISGVPSRFSGSGSGTDFTLTINGLEAEDAGTYYCHQSTSLPHTFGQGTKLDIKR
notes: as for B1
- Potency (nM), IL-17-driven IL-6 production in HS27 cells (human IL-17A/F [1]): 8.1 nM
- Potency (nM), IL-17-driven IL-6 production in HS27 cells (human IL-17A [2]): 4.5 nM
- Potency (nM), IL-17-driven IL-6 production in HS27 cells [3]: 18 nM
- EC50 (human IL-17A [4]): 0.447 nM

B4: IL17-B6-5 (antibody, V domains shown)
VH: EVQLVQSGAEVKKPGESVKISCKASGGSFRSYGISWVRQAPGQGLEWMGGITHFFGITDYAQKFQGRVTITADESTTTAYMELSGLTSDDTAVYYCAREPNDFWNGYYDTHDFDSWGQGTTVTVSS
VL: EIVLTQSPDFQSVTPKEKVTITCRASQNIGSELHWYQQKPDQSPKLLIKYASHSISGVPSRFSGSGSGTDFTLTINGLEAEDAATYYCHQSDTLPHTFGQGTKVDIK
notes: also called pJP243 B6.1 #5VH / pJP244 B6.1 #5VK
- Potency (pM), IL-17 and TNF-induced IL-6 secretion from NIH3T3 cells (rabbit IL-17A): 320 pM
- Potency (pM), IL-17-driven IL-6 production in HS27 cells (human IL-17A/F [5]): 134 pM
- Potency (pM), IL-17 and TNF-induced IL-6 secretion from NIH3T3 cells (mouse IL-17A [6]): 64 pM
- Potency (pM), IL-17-driven IL-6 production in HS27 cells (human IL-17A [7]): 18 pM
- Potency (pM), IL-17 and TNF-induced IL-6 secretion from NIH3T3 cells (rat IL-17A [8]): 73 pM
- Potency (pM), IL-17-driven IL-6 production in HS27 cells [9]: 12 pM
- EC50 (human IL-17A [4]): 0.22 nM

B5: IL17-B6-17 (antibody, V domains shown)
VH: EVQLVQSGAEVKKPGSSVKVSCKASGGSFGGYGIGWVRQAPGQGLEWMGGITPFFGFADYAQKFQGRVTITADESTTTAYMELSGLTSDDTAVYYCARDPNEFWNGYYSTHDFDSWGQGTTVTVSS
VL: B4 VL with N28D, S43P, I55T, A84G, S91T, T93S, H96Y, Q100P
notes: also called pJP249 B6.1 #17VH / pJP252 B6.1 #17Vk
- Potency (pM), IL-17 and TNF-induced IL-6 secretion from NIH3T3 cells (rabbit IL-17A): 232 pM
- Potency (pM), IL-17-driven IL-6 production in HS27 cells (human IL-17A/F [5]): 137 pM
- Potency (pM), IL-17 and TNF-induced IL-6 secretion from NIH3T3 cells (mouse IL-17A [6]): 69 pM
- Potency (pM), IL-17-driven IL-6 production in HS27 cells (human IL-17A [7]): 15 pM
- Potency (pM), IL-17 and TNF-induced IL-6 secretion from NIH3T3 cells (rat IL-17A [8]): 111 pM
- Potency (pM), IL-17-driven IL-6 production in HS27 cells [9]: 11 pM
- EC50 (human IL-17A [4]): 0.13 nM

B6: IL17-h5C5.8 (antibody, V domains shown)
VH: EVQLVQSGAEVKKPGASVKVSCKASGYTFTDYEFHWVRQAPGQGLEWMGVIHPGNGGTAYNQNFRDRVTITADKSTSTAYMELSSLRSEDTAVYYCARFLTYEGYFDYWGQGTLVTVSS
VL: DIQMTQSPSSLSASVGDRVTITCKASQSVSIDVGWFQQKPGKSPKLLIYHASNRYTGVPSRFSGSGSGTDFTFTISSLQPEDFATYFCQQDYSSPYTFGQGTKLEIKR
notes: IgG; constant regions not specified; also called h5C5.8 (VH.1-Vk.1a)
- EC50 (human IL-17A [10]): 0.07 nM
- Kd (rat IL-17A [11]): 14.2 nM
- koff (rat IL-17A [11]): 0.011 s⁻¹
- kon (rat IL-17A [11]): 774000 M⁻¹ s⁻¹
- Kd (mouse IL-17A [12]): 1.86 nM
- koff (mouse IL-17A [12]): 0.000531 s⁻¹
- kon (mouse IL-17A [12]): 285000 M⁻¹ s⁻¹
- Kd (human IL-17A/F [13]): 1.28 nM
- koff (human IL-17A/F [13]): 0.00121 s⁻¹
- kon (human IL-17A/F [13]): 948000 M⁻¹ s⁻¹
- Kd (cynomolgus monkey IL-17A [14]): 0.217 nM
- koff (cynomolgus monkey IL-17A [14]): 0.000226 s⁻¹
- kon (cynomolgus monkey IL-17A [14]): 1.04e+06 M⁻¹ s⁻¹
- Kd (human IL-17A [15]): 0.393 nM
- koff (human IL-17A [15]): 0.000444 s⁻¹
- kon (human IL-17A [15]): 1.13e+06 M⁻¹ s⁻¹
- Potency (pM), IL-17 and TNF-alpha-driven IL-6 production in NIH3T3 cells (rat IL-17A [16]): 13100 pM
- Potency (pM), IL-17-driven IL-6 production in HS27 cells (cynomolgus monkey IL-17A [17]): 20 pM
- Potency (pM), IL-17-driven IL-6 production in HS27 cells (human IL-17A [18]): 17 pM

B7: IL17-TN-L7-C8 (antibody, V domains shown)
VH: EVQLVQSGAEVKKPGASVKVSCKASGYTFSDFDIDWVRQATGLGLEWMGWMNPNSGNTGVAPKFRGRVSMTFNTAIRTAYLELSSLRPDDTAVYFCARSSESEGITIGFDNWGQGTLVTVSS
VL: SYELTQPPSVSVSPGQTASIPCSGDKLGNRYACWYKQKPGQPPVLVIYQDNKRPSGISERYSGSNYGDTATLTITGTQAMDEADYYCQTWDSTTGSYVFGTGTKVTVLG
notes: Fully human monoclonal antibody from mRNA display; also called IL-TN-L7-C8
- Potency (nM), IL-17-driven IL-6 production in HS27 cells (human IL-17A/F [1]): 2.6 nM
- Potency (nM), IL-17-driven IL-6 production in HS27 cells (human IL-17A [2]): 4.5 nM
- Potency (nM), IL-17-driven IL-6 production in HS27 cells [3]: 18 nM
- EC50 (human IL-17A [4]): 0.517 nM
